The source of these data is PMC8528861, “Structural and functional analysis of target recognition by the lymphocyte adaptor protein LNK” (Nature Communications, 2021).

For test [1], the target named is T1, M. musculus LNK SH2 domain (residues 324–446), wild type (mouse, UniProt O09039 324-446).
T1 construct: LNK (SH2B3), mouse, SH2 domain with N-terminal helix, residues 324-446; vector pET-50b(+); also called WT LNK SH2; SH2B3 SH2 domain; source: E. coli (tuner (DE3), BL21(DE3) or C43), purified (His-Tag resin, TEV cleavage, SEC); not shown: NusA, N-terminal, cleaved
T1 sequence (O09039 324-446): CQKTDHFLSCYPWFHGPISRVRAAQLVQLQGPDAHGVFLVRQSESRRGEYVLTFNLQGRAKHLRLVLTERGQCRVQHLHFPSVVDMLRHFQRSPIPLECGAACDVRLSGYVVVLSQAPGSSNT
Description: SPR; competition: biotinylated IL6ST pY757 peptide immobilised on a streptavidin chip; 0.1–0.5 μM WT LNK SH2 domain pre-incubated with phosphopeptide and flowed over; 10 mM HEPES pH 7.4, 150 mM NaCl, 3.4 mM EDTA, 0.005% Tween 20; response normalised to LNK only, IC50 fit. The conditions noted are these: both partners purified.

Test [2] has as its target T1, M. musculus LNK SH2 domain (residues …). The test is described as above. As to conditions: both partners purified. This is another data set of the same source.

Where no end group is shown, it is not given here. [ ]: non-standard residue; d: D form. pY = N[C@@H](Cc1ccc(OP(=O)(O)O)cc1)C(=O)O

In test [1], FTPD[pY]RLLTEND [JAK2 pY813 peptide mutant +1R] displayed an IC50 of over 5000 nM. In turn, PHLK[pY]LYLVVS (also: phosphotyrosine at 454 (Y5 or Y7), EPOR, intracellular site Y454) [EPOR pY454 phosphopeptide] showed an IC50 in test [2] of 661 nM.

B1: MPL pY631 phosphopeptide (peptide)
peptide: LPLS[pY]WQQP
notes: MPL (TPO receptor), intracellular site Y631; also called TPOR pY631
Consider B1, for which, in test [2], the 50% inhibitory concentration (IC50) was over 10000 nM.

B2: JAK2 pY813 phosphopeptide (12-mer) (peptide)
peptide: FTPD[pY]ELLTEND
notes: JAK2, stretch around Y813; also called WT pY813 peptide
Regarding B2, the IC50 in test [1] was 60 nM; in test [2], 138 nM.

For orientation: IC50 means the point on the concentration scale where inhibition reaches its midpoint. A low value points to higher potency.
